Measured values taken from patent US20190381169A1, “PHARMACEUTICAL COMBINATIONS FOR IMMUNOTHERAPY” (Technische Universitat Dresden, priority 2014, published 2019).
“Also recorded” adds a separate entry of the source.

What was measured:
[1] = target: T1, p75^NTR (Mus musculus, UniProt Q9Z0W1); assay: OVA-mediated allergic asthma induced by intratracheal OVA-loaded PDCs; format: in vivo
T1 construct: endogenous in cells; host or cells: murine plasmacytoid dendritic cells differentiated in vitro from bone marrow with Flt3-L (p75NTR+/+ wildtype; p75NTR-/- as control)
T1 sequence (Q9Z0W1 32-427): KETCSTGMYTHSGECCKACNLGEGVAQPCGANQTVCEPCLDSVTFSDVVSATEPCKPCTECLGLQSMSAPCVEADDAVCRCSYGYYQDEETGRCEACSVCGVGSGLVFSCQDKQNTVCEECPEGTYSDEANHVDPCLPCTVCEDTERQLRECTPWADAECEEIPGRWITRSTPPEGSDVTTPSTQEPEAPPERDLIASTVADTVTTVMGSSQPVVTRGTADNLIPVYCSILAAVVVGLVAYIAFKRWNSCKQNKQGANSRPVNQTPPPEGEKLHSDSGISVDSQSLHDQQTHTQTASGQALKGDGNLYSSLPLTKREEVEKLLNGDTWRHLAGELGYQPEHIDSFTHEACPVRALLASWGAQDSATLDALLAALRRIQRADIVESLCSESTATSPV
Source text: Heterozygous p75^NTR knockout mice (p75^NTR+/−) were purchased from The Jackson Laboratory (Bar Harbor, Me., USA) and bred under pathogen-free conditions in the animal facility of the TU Dresden. Male and female p75^NTR+/+ and p75^NTR−/− mice were used at 10-12 weeks of age for experiments.
Murine PDC were generated in vitro as follows: Bone marrow cells were isolated by flushing femur and tibia of mice. Erythrocytes were lysed using ACK buffer. Remaining cells were washed and cultured at a density of 2×10^6 cells per ml in RPMI 1640 medium supplemented with 10% FCS, 1 mM sodium pyruvat, 2 mM L-glutamine, 100 IU per ml penicillin, 100 μg/ml streptomycin, 10 mM HEPES buffer and 0.1 mM β-mercaptoethanol. To differentiate bone marrow cells into PDCs, 100 ng/ml Flt3-L (fms-like tyrosine kinase 3-ligand) was added to the cells. After 8 days of culture PDCs were enriched by removing the CD11b^+ fraction using CD11b Microbeads (Miltenyi Biotec) according to manufacturer instructions. Dead cells were excluded using Dead cell removal Kit (Miltenyi Biotec). Purity of PDCs was evaluated by flow cytometry (CD11b^−CD11c^+B220^+Siglec-H^+).
To induce allergic asthma, in vitro generated PDCs were incubated with 100 μg/ml ovalbumin (OVA; grade V; Sigma-Aldrich) for 24 h. To sensitize mice, 1×10^6 OVA-loaded PDCs were injected intratracheally to the lungs of anesthetized mice using 24GA i.v. cannula (BD Neoflon™). Control animals received either the same amount of PDCs without OVA or PBS. After 10 days, mice were exposed to 1% w/v OVA-aerosol for 30 min on 3 consecutive days in order to induce allergic reaction. 24 h after last provocation, animals were sacrificed and the immune reaction was examined based on the bronchoalveolar lavage fluid (BALF) cell composition (eosinophils, lymphocytes, macrophages) and pro-inflammatory cytokines spectrum, lung histology and blood serum OVA-specific IgE levels.
BALF cells were quantified by flow cytometry. Cells were preincubated with FcR blocking reagent to avoid a non-specific binding. The following antibodies were used for staining: CD3-V500, CD4-V450, CD8-PE Cy7, CD11c-APC Cy7, B220-PE, F4/80-PerCP, SiglecF-AF647, Ly6G-FITC. Among lymphocytes (FSC^low/SSC^low) the CD4^+ T helper cells were designated as CD3^posCD4^pos; the CD8^+ T helper cells as CD3^posCD8^pos; B-cells as CD3^negB220^pos; among granulocytes (FSC^low/SSC^high, Ly6G^pos) eosinophils were assigned as SiglecF^posCD11c^neg and neutrophils as SiglecF^neg. Macrophages were assigned as FSC^high highly autofluorescent CD11c^posF4/80^pos cells. Additionally, the cytospins of collected cells were prepared and stained according to Pappenheim's method.
BALF supernatant was used for quantification of IL-4, IL-5 and IL-13 by ELISA (eBioscience) according to manufacturer instruction.
Lungs were perfused with PBS and fixed in 4% v/v formaldehyde. 4 μm sections of paraffin-embedded lungs were stained with PAS staining for quantification of inflammation and GobleT-cell hyperplasia.
NGF is present in the lung and increased during inflammatory processes such as allergic asthma. To investigate the impact of NGF on PDCs during allergen-mediated immune response, p75^NTR+/+ PDCs were incubated with ovalbumin (OVA) in the presence or absence of NGF (100 ng/ml) prior intratracheal instillation to p75^NTR+/+ mice.
To substantiate the p75^NTR dependent impact of NGF on PDCs during allergen-mediated immune response, p75^NTR+/+ PDCs were incubated with ovalbumin (OVA) and NGF (100 ng/ml) in the presence or absence of the p75^NTR-specific inhibitory peptide PEP5 prior intratracheal instillation to p75^NTR+/+ mice.

[2] = target: T1, p75^NTR; assay: Th1 cytokine secretion in co-culture of murine PDCs and OTII T-cells with ovalbumin peptide (CBA); format: cell-based; settings: OTII T-cells with p75^NTR+/+ PDCs and ovalbumin peptide 323-339, NGF 100 ng/ml, compared to p75^NTR−/− PDCs
Description: Murine T-cells were isolated from the OTII mouse strain expressing mouse alpha-chain and beta-chain T-cell receptor specific for chicken ovalbumin 323-339, using the CD+ T-cell isolation kit (Miltenyi Biotec).
Both, murine PDCs and T-cells were cultured overnight with or without the chicken ovalbumin peptide 323-339 in the presence or absence of NGF (100 ng/ml). The concentrations of T-cell secreted Th1-cytokines IL-2 and IFNγ in the supernatant were determined by using the CBA kit (BD Bioscience) following manufacturer's instruction with modification in data analysis using Microsoft Excel. […] In the presence of p75^NTR+/+ PDCs presenting the ovalbumin peptide (OVA) to the T-cells, T-cells secrete the Th1 cytokines IFNγ (FIG. 5A) and IL-2 (FIG. 5B).

[3] = target: T1, p75^NTR; assay: Proliferation and cytokine secretion of OT-II CD4+ or OT-I CD8+ T-cells co-cultured with murine PDCs; format: cell-based
Source text: Murine T-cells were isolated either from OT-II mouse strain expressing ovalbumin peptide specific T-cell receptors on CD4+ T-cells or from OT-I mouse strain expressing ovalbumin peptide specific T-cell receptors on CD8+CTLs using the CD8+ T-cell isolation kit (Miltenyi Biotec).

[4] = target: T1, p75^NTR; settings: in vivo
[5] = p75^NTR+/+ PDCs incubated with OVA in presence of NGF (100 ng/ml) vs OVA alone, then intratracheal instillation to p75^NTR+/+ mice
[6] = co-culture with PDCs, NGF present
[7] = co-culture with p75^NTR+/+ PDCs, NGF added, compared to p75^NTR−/− PDCs

Substance: NGF: Nerve growth factor, best characterized neurotrophin; natural p75^NTR agonist (R&D Systems)
- number of macrophages in BALF ([1]; OVA up-take by PDCs in presence of NGF vs OVA alone): decreased
- production of Th2 cytokines (IL-4, IL-5 and IL-13) in the lung ([1]; OVA-loaded PDCs treated with NGF vs pulsed with OVA in absence of NGF): increased production
- inflammatory phenotype in the lung (histology: perivascular inflammation, mucus production) ([1]; PDCs treated with NGF during OVA-uptake): potentiated the inflammatory phenotype in the lung
- numbers of eosinophils in BALF [1, 5]: significantly augmented
- numbers of lymphocytes in BALF [1, 5]: significantly augmented
- induction of airway inflammation by p75^NTR−/− PDCs ([1]; p75^NTR−/− PDCs loaded with OVA in presence or absence of NGF, data not shown): not able to induce airway inflammation
- secretion of Th1 cytokines IFNγ and IL-2 [2]: reduced secretion
- cytokine secretion of CD8+ T-cells (CTLs) from OT-I strain [3, 6]: secreted less cytokines
- proliferation of CD8+ T-cells (CTLs) from OT-I strain [3, 6]: reduced proliferation
- cytokine secretion of CD4+ T-cells from OT-II strain [3, 7]: increased
- proliferation of CD4+ T-cells from OT-II strain [3, 7]: increased
- type I diabetes incidence without CpG B [4]: no NGF dependent effect
- time of onset of PDC induced type I diabetes (diabetes free time) ([4]; iv): occurred at a significant later stage; also recorded: significantly prolonged
